Sequences and labels used below:
B1: ATGL (PNPLA2, patatin-like phospholipase domain-containing protein 2), human, full length / CGI-58 (ABHD5, 1-acylglycerol-3-phosphate O-acyltransferase ABHD5), human (parent)
chain 1: MFPREKTWNISFAGCGFLGVYYVGVASCLREHAPFLVANATHIYGASAGALTATALVTGVCLGEAGAKFIEVSKEARKRFLGPLHPSFNLVKIIRSFLLKVLPADSHEHASGRLGISLTRVSDGENVIISHFNSKDELIQANVCSGFIPVYCGLIPPSLQGVRYVDGGISDNLPLYELKNTITVSPFSGESDICPQDSSTNIHELRVTNTSIQFNLRNLYRLSKALFPPEPLVLREMCKQGYRDGLRFLQRNGLLNRPNPLLALPPARPHGPEDKDQAVESAQAEDYSQLPGEDHILEHLPARLNEALLEACVEPTDLLTTLSNMLPVRLATAMMVPYTLPLESALSFTIRLLEWLPDVPEDIRWMKEQTGSICQYLVMRAKRKLGRHLPSRLPEQVELRRVQSLPSVPLSCAAYREALPGWMRNNLSLGDALAKWEECQRQLLLGLFCTNVAFPPEALRMRAPADPAPAPADPASPQHQLAGPAPLLSTPAPEARPVIGALGL
chain 2: MAAEEEEVDSADTGERSGWLTGWLPTWCPTSISHLKEAEEKMLKCVPCTYKKEPVRISNGNKIWTLKFSHNISNKTPLVLLHGFGGGLGLWALNFGDLCTNRPVYAFDLLGFGRSSRPRFDSDAEEVENQFVESIEEWRCALGLDKMILLGHNLGGFLAAAYSLKYPSRVNHLILVEPWGFPERPDLADQDRPIPVWIRALGAALTPFNPLAGLRIAGPFGLSLVQRLRPDFKRKYSSMFEDDTVTEYIYHCNVQTPSGETAFKNMTIPYGWAKRPMLQRIGKMHPDIPVSVIFGARSCIDGNSGTSIQSLRPHSYVKTIAILGAGHYVYADQPEEFNQKVKEICDTVD

The experiment covers variants of B1. The experiment can be described thus: LUMIER: Protein A-ATGL variant and firefly luciferase-partner co-expressed in HEK293T, lysates immunoprecipitated on IgG-coated plates, co-precipitated partner measured as luciferase luminescence. The note with it: with CGI-58 (ABHD5, 1-acylglycerol-3-phosphate O-acyltransferase ABHD5), transient co-transfection, IgG-coated LUMITRAC plates, 2 h at 4 °C, three PBS washes, Bright-Glo luciferase reagent, triplicates per assay, two …, scale: log2 fold change of co-immunoprecipitated luminescence relative to wild-type ATGL within each experiment.

Turning to chain 1 MFPREKTWNISFAGCGFLGVYYVGVASCLREHAPFLVANATHIYGASAGALTATALVTGVCLGEAGAKFIEVSKEARKRFLGPLHPSFNLVKIIRSFLLKVLPADSHEHASGRLGISLTRVSDGENVIISHFNSKDELIQANVCSGFIPVYCGLIPPSLQGVRYVDGGISDNLPLYELKNTITVSPFSGESDICPQDSSTNIHELRVTNTSIQFNLRNLYRLSKALFPPEPLVLREMCKQGYRDGLRFLQRNGLLNRPNPLLALPPARPHGPEDKDQAVESAQAEDYSQLPGEDHILEHLPARLNEALLEACVEPTDLLTTLSNMLPVRLATAMMVPYTLPLESALSFTIRLLEWLPDVPEDIRWMKEQTGSICQYLVMRAKRKLGRHLPSRLPEQVELRRVQSLPSVPLSCAAYREALPGWMRNNLSLGDALLKWEECQRQLLLGLFCTNVAFPPEALRMRAPADPAPAPADPASPQHQLAGPAPLLSTPAPEARPVIGALGL [chain 1 A434L], the screen value by setting is: (parent: 0.32, not graded) 0.0792; (parent: 0.45, not graded) 0.226.
Taken in the same sequence, the figures for chain 1 MFPREKTWNISFAGCGFLGVYYVGVASCLREHAPFLVANATHIYGASAGALTATALVTGVCLGEAGAKFIEVSKEARKRFLGPLHPSFNLVKIIRSFLLKVLPADSHEHASGRLGISLTRVSDGLNVIISHFNSKDELIQANVCSGFIPVYCGLIPPSLQGVRYVDGGISDNLPLYELKNTITVSPFSGESDICPQDSSTNIHELRVTNTSIQFNLRNLYRLSKALFPPEPLVLREMCKQGYRDGLRFLQRNGLLNRPNPLLALPPARPHGPEDKDQAVESAQAEDYSQLPGEDHILEHLPARLNEALLEACVEPTDLLTTLSNMLPVRLATAMMVPYTLPLESALSFTIRLLEWLPDVPEDIRWMKEQTGSICQYLVMRAKRKLGRHLPSRLPEQVELRRVQSLPSVPLSCAAYREALPGWMRNNLSLGDALAKWEECQRQLLLGLFCTNVAFPPEALRMRAPADPAPAPADPASPQHQLAGPAPLLSTPAPEARPVIGALGL [chain 1 E125L] were -0.624 and -0.2.
Taken in the same sequence, the figures for chain 1 MFPREKTWNISFAGCGFLGVYYVGVASCLREHAPFLVANATHIYGASAGALTATALVTGVCLGEAGAKFIEVSKEARKRFLGPLHPSFNLVKIIRSFLLKVLPADSHEHASGRLGISLTRVSDGENVIISHFNSKDELIQANVCSGFIPVYCGLIPPSLQGVRYVDGGISDNLPLYELKNTITVSPFSGESDICPQDSSTNIHELRVTNTSIQFNLRNLYRLSKALFPPEPLVLREMCKQGYRDGLRFLQRNGLLNRPNPLLALPPARPHGPEDKDQAVESAQAEDYSQLPGEDHILEHLPARLNEALLEACVEPTDLLTTLSNMLPVRLATAMMVPYTLPLESALSFTIRLLEWLPDVPEDIRWMKAQTGSICQYLVMRAKRKLGRHLPSRLPEQVELRRVQSLPSVPLSCAAYREALPGWMRNNLSLGDALAKWEECQRQLLLGLFCTNVAFPPEALRMRAPADPAPAPADPASPQHQLAGPAPLLSTPAPEARPVIGALGL [chain 1 E368A] were -0.427 and -0.714.
The corresponding values for chain 1 MFPREKTWNISFAGCGFLGVYYVGVASCLREHAPFLVANATHIYGASAGALTATALVTGVCLGEAGAKFIEVSKEARKRFLGPLHPSFNLVKIIRSFLLKVLPADSHEHASGRLGISLTRVSDGENVIISHFNSKDELIQANVCSGFIPVYCGLIPPSLQGVRYVDGGISDNLPLYELKNTITVSPFSGESDICPQDSSTNIHELRVTNTSIQFNLRNLYRLSKALFPPEPLVLREMCKQGYRDGLRFLQRNGLLNRPNPLLALPPARPHGPEDKDQAVESAQAEDYSQLPGEDHILEHLPARLNEALLEACVEPTDLLTTLSNMLPVRLATAMMVPYTLPLESALSFTIRLLEWLPDVPEDIRWMKEQTGSICQYLVMRAKRKLGRHLPSRLPEQVELRRVQSLPSVPLSCAAYREALPGWMRNNLSLGDALAKWEECQRQLLLGLFCTNVEFPPEALRMRAPADPAPAPADPASPQHQLAGPAPLLSTPAPEARPVIGALGL [chain 1 A453E] are 0.381 and 0.474.
For the variant chain 1 MFPREKTWNISFAGCGFLGVYYVGVASCLREHAPFLVANATHIYGASAGALTATALVTGVCLGEAGAKFIEVSKEARKRFLGPLHPSFNLVKIIRSFLLKVLPADSHEHASGRLGISLTRVSDGENVIISHFNSKDELIQANVCSGFIPVYCGLIPPSLQGVRYVDGGISDNLPLYELKNTITVSPFSGESDICPQDSSTNIHELRVTNTSIQFNLRNLYRLSKALFPPEPLVLREMCKQGYRDGLRFLQRNGLLNRPNPLLALPPARPHGPEDKDQAVESAQAEDYSQLPGEDHILEHLPARLNEALLEACVAPTDLLTTLSNMLPVRLATAMMVPYTLPLESALSFTIRLLEWLPDVPEDIRWMKEQTGSICQYLVMRAKRKLGRHLPSRLPEQVELRRVQSLPSVPLSCAAYREALPGWMRNNLSLGDALAKWEECQRQLLLGLFCTNVAFPPEALRMRAPADPAPAPADPASPQHQLAGPAPLLSTPAPEARPVIGALGL [chain 1 E314A], the screen value reads like this: (parent: 0.32, not graded) -0.218; (parent: 0.45, not graded) -0.112.
With chain 1 MFPREKTWNISFAGCGFLGVYYVGVASCLREHAPFLVANATHIYGASAGALTATALVTGVCLGEAGAKFIEVSKEARKRFLGPLHPSFNLVKIIRSFLLKVLPEDSHEHASGRLGISLTRVSDGENVIISHFNSKDELIQANVCSGFIPVYCGLIPPSLQGVRYVDGGISDNLPLYELKNTITVSPFSGESDICPQDSSTNIHELRVTNTSIQFNLRNLYRLSKALFPPEPLVLREMCKQGYRDGLRFLQRNGLLNRPNPLLALPPARPHGPEDKDQAVESAQAEDYSQLPGEDHILEHLPARLNEALLEACVEPTDLLTTLSNMLPVRLATAMMVPYTLPLESALSFTIRLLEWLPDVPEDIRWMKEQTGSICQYLVMRAKRKLGRHLPSRLPEQVELRRVQSLPSVPLSCAAYREALPGWMRNNLSLGDALAKWEECQRQLLLGLFCTNVAFPPEALRMRAPADPAPAPADPASPQHQLAGPAPLLSTPAPEARPVIGALGL [chain 1 A104E], the screen value is 0.291 (parent: 0.32, not graded) and 0.0407 (parent: 0.45, not graded).

The values above are taken from article PMC10958042.
